Square brackets hold non-standard residues; d marks the D form. Ends that are not written are not given here. Peptide text beside a SMILES is read from it. Ahx = NCCCCCC(=O)O
B1: GIP(1-6)(EKEEKEKEEKE)(19-30)NH2 (peptide)
peptide: YAEGTFEKEEKEKEEKEQQDFVNWLLAQK-NH2
notes: range 1-6;range 19-30; The expected mass 3574.0 fits the 11-residue linker as printed
B2: GIP(1-6)(AAAA)(19-30)NH2 (peptide)
peptide: YAEGTFAAAAQQDFVNWLLAQK-NH2
notes: range 1-6;range 19-30; also called GIP(l-6)(AAAA)(19-30)NH2
B3: GIP(1-6)(19-30)NH2 (peptide, UniProt P09681 52-57, looked up)
peptide: YAEGTFQQDFVNWLLAQK-NH2
notes: range 1-6;range 19-30; Core deletion, no linker (formula 5, C not used, truncated at residue 30)
B4: GIP(1-6)(EKEK)(19-30)NH2 (peptide)
peptide: YAEGTFEKEKQQDFVNWLLAQK-NH2
notes: range 1-6;range 19-30
B5: GIP(1-6)(Ahx)1(19-30)NH2 (peptide, UniProt P09681 52-57, looked up)
peptide: YAEGTF[Ahx]QQDFVNWLLAQK-NH2
modifications: N-terminus assumed
SMILES: CC(C)C[C@H](NC(=O)[C@H](CC(C)C)NC(=O)[C@H](Cc1c[nH]c2ccccc12)NC(=O)[C@H](CC(N)=O)NC(=O)[C@@H](NC(=O)[C@H](Cc1ccccc1)NC(=O)[C@H](CC(=O)O)NC(=O)[C@H](CCC(N)=O)NC(=O)[C@H](CCC(N)=O)NC(=O)CCCCCNC(=O)[C@H](Cc1ccccc1)NC(=O)[C@@H](NC(=O)CNC(=O)[C@H](CCC(=O)O)NC(=O)[C@H](C)NC(=O)[C@@H](N)Cc1ccc(O)cc1)[C@@H](C)O)C(C)C)C(=O)N[C@@H](C)C(=O)N[C@@H](CCC(N)=O)C(=O)N[C@@H](CCCCN)C(N)=O
notes: range 52-57
B6: GIP(1-6)(Ahx)2(19-30)NH2 (peptide, UniProt P09681 52-57, looked up)
peptide: YAEGTF[Ahx][Ahx]QQDFVNWLLAQK-NH2
modifications: N-terminus assumed
SMILES: CC(C)C[C@H](NC(=O)[C@H](CC(C)C)NC(=O)[C@H](Cc1c[nH]c2ccccc12)NC(=O)[C@H](CC(N)=O)NC(=O)[C@@H](NC(=O)[C@H](Cc1ccccc1)NC(=O)[C@H](CC(=O)O)NC(=O)[C@H](CCC(N)=O)NC(=O)[C@H](CCC(N)=O)NC(=O)CCCCCNC(=O)CCCCCNC(=O)[C@H](Cc1ccccc1)NC(=O)[C@@H](NC(=O)CNC(=O)[C@H](CCC(=O)O)NC(=O)[C@H](C)NC(=O)[C@@H](N)Cc1ccc(O)cc1)[C@@H](C)O)C(C)C)C(=O)N[C@@H](C)C(=O)N[C@@H](CCC(N)=O)C(=O)N[C@@H](CCCCN)C(N)=O
notes: range 52-57

Columns and labels:
[1] = biological target: T1, rat pancreatic islet (wild type) GIP-receptor (Rattus norvegicus, UniProt P43219); experiment: biochemical; format: binding; details: read-out: Receptor Binding % Displacement at 20 μM
T1 construct: expressed in transfected cells; host or cells: CHO-K1 (Chinese hamster ovary)
T1 sequence (P43219 19-455): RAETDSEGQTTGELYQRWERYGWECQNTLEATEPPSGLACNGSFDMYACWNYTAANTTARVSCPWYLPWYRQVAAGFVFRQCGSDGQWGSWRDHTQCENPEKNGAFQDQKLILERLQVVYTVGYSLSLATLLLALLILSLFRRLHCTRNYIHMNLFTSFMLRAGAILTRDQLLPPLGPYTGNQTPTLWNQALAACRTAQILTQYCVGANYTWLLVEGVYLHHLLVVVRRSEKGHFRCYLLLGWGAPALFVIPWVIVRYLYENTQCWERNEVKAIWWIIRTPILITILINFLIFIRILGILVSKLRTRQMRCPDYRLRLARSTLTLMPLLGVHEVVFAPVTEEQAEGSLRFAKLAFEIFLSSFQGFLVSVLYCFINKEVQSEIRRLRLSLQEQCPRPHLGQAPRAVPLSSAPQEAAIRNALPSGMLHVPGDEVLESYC
Experimental: (§1) Cells were cultured in DMEM/F12, supplemented with 10% newborn calf serum, 50 units/ml penicillin G, and 50 μg/ml streptomycin (Culture media and antibiotics from Gibco BRL, Life Technologies). Cells were grown in 75 cm^2 flasks until 80-90% confluent, when they were split and seeded onto 24 well plates at a density of 50,000 cells/well. Experiments were carried out 48 h later.
(§2) Binding studies using ^125I-labeled spGIP1-42, purified by high performance liquid chromatography (HPLC), were performed essentially as described previously-[21]. wtGIP-R1 Cells (1-5×10^5/well) were washed twice at 4° C. in binding buffer (BB), consisting of DMEM/F12 (GIBCO), 15 mM HEPES, 0.1% bovine serum albumin (BSA), 1% Trasylol (aprotinin; Bayer), pH 7.4. They were incubated for 12-16 h at 4° C. with ^125I-spGIP (50,000 cpm) in the presence or absence of unlabeled GIP1-42 or analogue. Following incubation, cells were washed twice with ice cold buffer, solubilized with 0.1 M NaOH (1 ml), and transferred to culture tubes for counting of cell-associated radioactivity. Nonspecific binding was defined as that measured in the presence of 1 μM GIP1-42 or GIP1-30, and specific binding expressed as % of binding in the absence of competitor (% B/Bo).

[2] = biological target: T1, rat pancreatic islet (wild type) GIP-receptor; experiment: cAMP production in CHO-K1 cells expressing the GIP-receptor (wtGIP-R1 cells); format: cell-based; details: Table 3; cyclic AMP stimulated by 20 μM peptide if plateau levels were not achieved
Experimental: as §1
Cells were extracted with 70% ethanol and cAMP levels measured by radioimmunoassay (Biomedical Technologies, Stoughton, Mass.). Data are expressed as fmol/1000 cells or % maximal GIP1-42-stimulated cAMP production (inhibition experiments).

[3] = biological target: T2, rat pancreatic islet (wild type) GIP-receptor stably expressed on CHO-K1 cells (rat, UniProt P43219 19-455); experiment: competition with 125I-GIP on CHO-K1 cells transfected with rat GIP receptor
T2 construct: whole, on cells; also called wtGIPR cells; wtGIP-R1 cells
T2 sequence (looked up): T1 sequence (P43219 19-455)
Experimental: (§3) Cells were cultured in DMEM/F12, supplemented with 10% newborn calf serum, 50 units/ml penicillin G, and 50 μg/ml streptomycin (Culture media and antibiotics from Gibco BRL, Life Technologies). Cells were grown in 75 cm² flasks until 80-90% confluent, when they were split and seeded onto 24 well plates at a density of 50,000 cells/well. Experiments were carried out 48 h later.
as §2, with “¹²⁵I-labeled spGIP₁₋₄₂,” for “^125I-labeled spGIP1-42,”, “(1-5×10⁵/well)” for “(1-5×10^5/well)”, “¹²⁵I-spGIP” for “^125I-spGIP”, “GIP₁₋₄₂” for “GIP1-42”, “GIP₁₋₃₀,” for “GIP1-30,”

[4] = biological target: T2, rat pancreatic islet (wild type) …; experiment: displacement of 125I-GIP from CHO-K1 cells transfected with rat GIP receptor, 20 µM peptide
Experimental: as §3
as §2, with “¹²⁵I-labeled spGIP₁₋₄₂,” for “^125I-labeled spGIP1-42,”, “(1-5×10⁵/well)” for “(1-5×10^5/well)”, “¹²⁵I-spGIP” for “^125I-spGIP”, “GIP₁₋₄₂” for “GIP1-42”, “GIP₁₋₃₀,” for “GIP1-30,”

[5] = biological target: T2, rat pancreatic islet (wild type) …; experiment: cell-based or functional assay

| Molecule | inhibition at 20 µM [1] | cAMP Production Max. cAMP (Fold Basal) [2] | IC50 [3] | % Displacement at 20 µM [4] | Max. cAMP (Fold Basal) [5] | cAMP Production EC50 [5] |
| --- | --- | --- | --- | --- | --- | --- |
| CC[C@H](C)[C@H](NC(=O)[C@H](CO)NC(=O)[C@H](Cc1ccc(O)cc1)NC(=O)[C@H](CC(=O)O)NC(=O)[C@H](CO)NC(=O)[C@@H](NC(=O)[C@H](Cc1ccccc1)NC(=O)[C@@H](NC(=O)CNC(=O)[C@H](CCC(=O)O)NC(=O)[C@H](C)NC(=O)[C@@H](N)Cc1ccc(O)cc1)[C@@H](C)O)[C@@H](C)CC)C(=O)N[C@@H](C)C(=O)N[C@@H](CCSC)C(=O)NCCCCCC(=O)NCCCCCC(=O)N[C@@H](CCC(N)=O)C(=O)N[C@@H](CCC(N)=O)C(=O)N[C@@H](CC(=O)O)C(=O)N[C@@H](Cc1ccccc1)C(=O)N[C@H](C(=O)N[C@@H](CC(N)=O)C(=O)N[C@@H](Cc1c[nH]c2ccccc12)C(=O)N[C@@H](CC(C)C)C(=O)N[C@@H](CC(C)C)C(=O)N[C@@H](C)C(=O)N[C@@H](CCC(N)=O)C(=O)N[C@@H](CCCCN)C(N)=O)C(C)C [GIP(1-14)(Ahx)2(19-30)NH2] (H-YAEGTFISDYSIAM[Ahx][Ahx]QQDFVNWLLAQK-NH2; N-terminus assumed) | 85.8 ± 1.6% | 95.9 ± 3.2 Fold Basal | – | – | – | – |
| CC[C@H](C)[C@H](NC(=O)[C@H](CO)NC(=O)[C@H](Cc1ccc(O)cc1)NC(=O)[C@H](CC(=O)O)NC(=O)[C@H](CO)NC(=O)[C@@H](NC(=O)[C@H](Cc1ccccc1)NC(=O)[C@@H](NC(=O)CNC(=O)[C@H](CCC(=O)O)NC(=O)[C@H](C)NC(=O)[C@@H](N)Cc1ccc(O)cc1)[C@@H](C)O)[C@@H](C)CC)C(=O)N[C@@H](C)C(=O)N[C@@H](CCSC)C(=O)NCCCCCC(=O)NCCCCCC(=O)NCCCCCC(=O)N[C@@H](CCC(N)=O)C(=O)N[C@@H](CCC(N)=O)C(=O)N[C@@H](CC(=O)O)C(=O)N[C@@H](Cc1ccccc1)C(=O)N[C@H](C(=O)N[C@@H](CC(N)=O)C(=O)N[C@@H](Cc1c[nH]c2ccccc12)C(=O)N[C@@H](CC(C)C)C(=O)N[C@@H](CC(C)C)C(=O)N[C@@H](C)C(=O)N[C@@H](CCC(N)=O)C(=O)N[C@@H](CCCCN)C(N)=O)C(C)C [GlP(1-14)(Ahx)3(19-30)NH2] (H-YAEGTFISDYSIAM[Ahx][Ahx][Ahx]QQDFVNWLLAQK-NH2; N-terminus assumed) | 82.7 ± 3.2% | 49.5 ± 1.6 Fold Basal | – | – | – | – |
| YAEGTFAAAAQQDFVNWLLAQK-NH2 [GIP(l-6)(AAAA)(19-30)NH2] | 88.7 ± 3% | 7.21 ± 0.99 Fold Basal | – | – | – | – |
| YAEGTFEKEEKEKEEKEQQDFVNWLLAQK-NH2 | 75.1 ± 2.7% | 84.9 ± 8.1 Fold Basal | – | – | – | – |
| YAEGTFEKEKQQDFVNWLLAQK-NH2 [GIP(1-6)(EKEK)(19-30)NH2] | 86.8 ± 1.6% | 8.17 ± 0.87 Fold Basal | – | – | – | – |
| YAEGTFISDYSIAMAAAAQQDFVNWLLAQK-NH2 [GIP(1-14)(AAAA)(19-30)NH2] | 100 ± 0.9% | 82.1 ± 2.8 Fold Basal | – | – | – | – |
| YAEGTFISDYSIAMEKEKQQDFVNWLLAQK-NH2 [GIP(1-14)(EKEK)(19-30)NH2] | 98.7 ± 1.1% | 80.6 ± 5.6 Fold Basal | – | – | – | – |
| YAEGTFISDYSIAMQQDFVNWLLAQK-NH2 [GIP(1-14)(19-30)NH2] | 95.4 ± 0.7% | 127 ± 22 Fold Basal | – | – | – | – |
| YAEGTFQQDFVNWLLAQK-NH2 [GIP(1-6)(19-30)NH2] | 88.2 ± 0.7% | 1.81 ± 0.42 Fold Basal | – | – | – | – |
| B1 | – | – | 4.27 µM | 75.1% | 84.9 fold basal | 8.39 µM |
| B2 | – | – | 2.41 µM | 88.7% | 7.21 fold basal | – |
| B3 | – | – | 2.74 µM | 88.2% | 1.81 fold basal | – |
| B4 | – | – | 2.09 µM | 86.8% | 8.17 fold basal | – |
| B5 | – | – | 8.73 µM | 62% | 95.9 fold basal | 14.5 µM |
| B6 | – | – | 4.98 µM | 75.3% | 2.55 fold basal | – |
